Data on two molecules can be found in patent EP2954933A1 (3B Pharmaceuticals GmbH, dated 2015).

*1 amine or outer side, *2 acyl side, *3 side chain or, on linkers, in order; H or OH if unused. [ ]: non-standard residue; d: D form. Lys(DOTA) = Lys with DOTA chelator on the side chain; Oic = O=C(O)[C@@H]1C[C@@H]2CCCC[C@@H]2N1; d2Nal = N[C@H](Cc1ccc2ccccc2c1)C(=O)O; Glutaryl = O=C(CCCC(=O)[*:2])[*:1]; αMeF = C[C@](N)(Cc1ccccc1)C(=O)O; Ttds = non-natural spacer; Orn = NCCC[C@H](N)C(=O)O; 1206 = not defined here; GABA = NCCCC(=O)O

This assay deals with T1, bradykinin B1 receptor (human) (UniProt P46663).
T1 sequence (looked up): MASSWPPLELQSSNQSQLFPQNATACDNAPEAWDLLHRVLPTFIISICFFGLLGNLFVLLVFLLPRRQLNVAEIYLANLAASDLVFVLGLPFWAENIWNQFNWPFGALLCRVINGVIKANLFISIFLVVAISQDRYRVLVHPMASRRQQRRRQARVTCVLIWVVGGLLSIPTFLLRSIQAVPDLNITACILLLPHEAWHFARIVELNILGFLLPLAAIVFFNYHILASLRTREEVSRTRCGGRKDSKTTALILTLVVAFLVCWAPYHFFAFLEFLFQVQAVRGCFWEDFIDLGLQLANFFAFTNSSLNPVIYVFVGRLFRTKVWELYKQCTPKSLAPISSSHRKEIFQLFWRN
The experiment in a line: radioligand displacement: 0.35 nM [3H]desArg10-KD on human B1R from CHO cells, compound at 100 nM.

B1: 1206-Glutar-Ttds-Lys(DOTA)-Ttds-GABA-Lys-Arg-Pro-Hyp-Gly-Cha-Ser-Pro-Leu-OH (peptide)
peptide: KRPXGXSPL
modifications: position 4 = Hyp (hydroxyproline); position 6 = Cha (cyclohexylalanine); N-terminus of Lys1 acylated with 1206-Glutar-Ttds-Lys(DOTA)-Ttds-GABA- (1206 = non-peptide NTR1 antagonist moiety; DOTA on the Lys side chain); free C-terminal …
B1 yielded an Inhibition [at 100 nM, %] of 20%.

B2: 1206-Glutar-Ttds-Lys(DOTA)-Ttds-GABA-Orn-Arg-Oic-Pro-Gly-Amf-Ser-nal-Ile-OH (peptide)
peptide: {1206-Glutaryl-Ttds-Lys(DOTA)-Ttds-GABA}-[Orn]R[Oic]PG[αMeF]S[d2Nal]I-OH
modifications: reading uncertain; also: printed as 1206-Glutar-Ttds-Lys(DOTA)-Ttds-GABA-Orn-Arg-Oic-Pro-Gly-Amf-Ser-nal-Ile-OH
B2 had an Inhibition [at 100 nM, %] of 17%.
